The source of these data is paper PMC6165545.

This test deals with growth hormone secretagogue receptor-type 1a tagged with enhanced green fluorescent protein (GHSR-1a-EGFP), stably expressed in HEK293A cells (UniProt Q92847).
Sequence of UniProt Q92847 (Q92847 whole entry): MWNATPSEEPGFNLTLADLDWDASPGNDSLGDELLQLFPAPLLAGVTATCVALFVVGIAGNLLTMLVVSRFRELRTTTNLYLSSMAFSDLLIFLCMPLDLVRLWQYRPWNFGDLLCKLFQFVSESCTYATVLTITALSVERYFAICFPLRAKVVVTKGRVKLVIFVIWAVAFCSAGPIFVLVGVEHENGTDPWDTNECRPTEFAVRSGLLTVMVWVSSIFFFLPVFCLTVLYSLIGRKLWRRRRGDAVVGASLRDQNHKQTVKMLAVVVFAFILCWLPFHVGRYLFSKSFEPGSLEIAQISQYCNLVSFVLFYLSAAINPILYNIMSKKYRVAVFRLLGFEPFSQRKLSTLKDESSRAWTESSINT

Turning to casein-derived hydrolysate (CasHyd), the intracellular Ca2+ mobilisation in HEK293A cells stably expressing GHSR-1a-EGFP, EC50 was determined as 0.27 mg/mL and the intracellular Ca2+ mobilisation in HEK293A cells stably expressing GHSR-1a-EGFP, Emax as percentage of the control (3.3% FBS) was 149%. With ghrelin (rat) (peptide), the intracellular Ca2+ mobilisation in HEK293A cells stably expressing GHSR-1a-EGFP, Emax as percentage of the control (3.3% FBS) turned out to be 132%.
